Measurements: the nanobody polyreactivity screen of Harvey et al. (2022)

Assay: yeast display, Sf9 membrane polyspecificity reagent, FACS + sequencing; frameworks hold sequencing errors
Procedure, shortened: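 Sorting gates, low and high (top ~1%), were placed on anti-HA fluorescence to track expression and on streptavidin fluorescence to track reagent binding. A clone's polyreactivity label is taken from the gate it came out of. The reagent was 10% biotinylated, detergent-solubilized Sf9 membrane, applied for 1 hour at 4 °C to galactose-induced yeast display cells.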

Sequence	polyreactivity (PSR sort gate)
QVQLVESGGGLVQAGGSLRLSCAASGIIFVENPMGWYRQAPGKERELVATITSGDTTNYADSVKGRFTISRDNAKNTVYLHMNSLKAEDTAVYYCAAERYEDFTEYDYWGQGTQVTVSS	low polyreactivity
QVQLVESGGGLVQAGGSLRLSCAASGFIFITVNAMGWYRQAPGKEREFVAAITRSGTGTYYADSVKGRFTISRDNAKNTVYLQMNSLKPEDTAVYYCAAEWSEESDYWGQGTQVTVSS	low polyreactivity
QVQLVESAGGLVQAGGSLRLSCAASGSIFILNAMGWYRQAPGKERELVAAISWSGGRTNYADSVKGRFTISRDNAKNTVYLHMNRLKPEDTAVYSCAARVTPYRGFYYWGQGTQVTVSS	high polyreactivity
QVQLVESGGGLVQAGGSLRVSCAASGRIFTQYATGWYRQAPAKEREMVAAINASDGSTYADSVKGRFTISRDNAKNSVYVQMNSLNPEDSAVYYCNVTGGPYDFTRWSDFDHWGQGTQVTVSS	low polyreactivity
QVQLVESGGGLVQAGGSLRLSCAASGSIFFVYAMGWYRQAPGKERELVAGIRWSGGRTSYADSVKGRFTISRDNAKNTVYLQMNSLNPEDTAVYYCAADPRSYFTSEYWGQGTQVTVSS	high polyreactivity
QDQLVESGGGLVQAGGSLRLSCAASGRTFTTNDMGWYRQAPGKEWELVAGISWSGGSTFYADSVKGRFTISRDNAKNTVYLQMNSLKPEDTAVYSCATSARSYQSAYGHYTWYDYWGQGTQVTVSS	low polyreactivity
QVQRVESGGGLVQAGGSLRLSCAASGRTFSKNAMGRTRQAPGQETELVAAISGSGGSTYYADSVKGRFTISRDNAKNTVYLQMNSLKPEDTAVYYCADRYTVRRSGYWGQGTQVTVSS	high polyreactivity
QVQLVESGGGLVQAGGSLRLSCAASGITFGRNTMGWYRQAPGKERELVAAIDSGGNTYADSVKGRFTISRDNAKNTVYLQMNSLKPEDTAVYYCAAVVYAYLYADYDYWGQGTQVTVSS	low polyreactivity
QVQLVESGGGLVQAGGSLRLSCAASGSIFFYNTMGWYRQAPGKERELVAAISASGGRTYYADSVKGRFTISRDYSKNTVYLQMNSLKPEDTAVYYCAVRVPYRGYTRYDYWGHGTQVTVSS	high polyreactivity
QVQLVESGGGLVQAGGSLRLSCDASGRSFYPYSMGWYRQAPGKERELVAAIDWSDGSTYYADSVKGRFTISRDNAKNTFYLQMNSLKPEDTAVYYCSAEDYNYWSYDYWGQGTQVTVSS	low polyreactivity
QVQLVESGGGLVQAGGSLRLSCAASGRNFPYYAMGWSRQAPGKERELVADISSSGGRTYYADSVKGRFTTSRDNAKNTVYLQMNSLKPEDTAVYYCNAESTYYPSGEDYWGQGTQVTVSS	low polyreactivity
QVQLQESGGGLVQAGGSLRLSCAASGYISTFSSEMGWYRQAPGKERELVASIAPGCTTSYADSVKGRFTISRDKAKNTVYLQMNILKPEDTAVYFCAVVYTVPASFGYWGQGTQVTVIS	high polyreactivity
QVQLVESGGGLVQAGGSLRLSCAASGSIFRSYAMGWYRPAPGKERELVASITWRGGRTYYADSVKGRFTISRDNAKNTVYLQMNSLKPEDTAVYYCAVLWTPAGGYYFRYDYWGQGTQVTVSS	low polyreactivity
QVQLQESGAGLVQAGGRLRLSCASSGTITVLYKMGWFRQAPGKEREFVASINYGTSTYYADSVKGRFTVSRDSATNHEYLQMISLKPEDTAVYYCAAAYRWQDVYRYWGQGSQVTVSS	low polyreactivity
QVQLVESGGGLVQAGGSLRLSCAASGRIFGLYAMGWYRQAPGKERELVATITRRGGSTYYADSVKGRFTISRDNAKNTVYLQMNSLKPEDTAVYYCNVRTLVQHHSSYSSRYDSWGQGTQVTVSS	high polyreactivity
QVQLVESGGGLVQAGGSLRLSCAASGNIFGVDAMGWYRQAPGKERELVATITTGGSTYYADSVKGRFTISRDNAKNTVYLQMNSLKPADTAVYYCAADVGGGNYVYYGNDYDDGYWGQGTQVTVSS	low polyreactivity
QVQLEESGGGLVQAGGSLRLSCAASGFTFYRDTMGGYRQAPGKERELFAAITRDGSTYYADSVKGRFTISRDNAKYTVSLQLNSLKPEDTAVYYWNARGTVPWYGYDYWGQGTQVNVSS	high polyreactivity
QVQLVESGGGLVQAGGSLRLSCAASGGTFRVYVMGLYRQATGKERELVAAISRGGGSTYYADSVKGRFTISRDNAKNTVYLQMNSLKPEDTAVYYCAARVWRYPWRASEYDYWGQGTQVTVSS	high polyreactivity
QVQLVESGGGLVQAGGSLRLSCAASGIIFAGNAMGWYRQAPGKERELVAAISSNGGSTYYADSVKGRFTISRDNAKNYVYLQMNSLKPEDTAVYYCAADRVYWGRVQGYYWGQGTQVTVSS	low polyreactivity
QVQLVESGGGLVQAGGSLRLSCAASGFIFYFNAMGWYRQAPGKERELVAAISASGGRTYYADSVKGRFTISRDNAKNTVYLQMNSLIPEDTAVYYCAADIRGYDYWGQGTQVTVSS	high polyreactivity
QVQHVESGGGLVQAGGSLRLSCAASGRTFRANTMGWYRQAPGKERELVASIRGNGGTTYYADSVKGRFTISRDNAKNTVYLQMNSLKPEDTAVYYCAAGLYYIRWSRRYEYWGQGTQVTVSS	high polyreactivity
QVQLVESGGGLVQAGGSLRLRCAASGSTFWSYAMGWYRQAPGKERELVATITRAGTTNYADSVKGPFTISRDNAKNTVYLQMNSLKPEDTAVYYCAKRKFRWPYQGSYSYIPFGYWGQGTQVTVSS	high polyreactivity

Sequence	polyreactivity (PSR sort gate)
QVQLVDSGGGLVQAGGSLRLSCAASGINFVWNVMGWYRQAPGKERELVADITSGGRTHYADSVKGRFTISRDNAKNTVYVQMNSLKPDDTAVYYCAARKYWRYQNYDYWGQGTQVTVSS	low polyreactivity
QVQLVESGGGLVQAGGSLRLSCAASGSTFTRNAMGWYRQAPGKERELVATISSGGSTNYADSVKGRFTISRDNAKNTVYLQMNSLKPEDTAVYYCDKRSLYRYYYWGQGTQVTVSS	high polyreactivity
QVQLVESGGGLVQAGGSLRLSCAASGRTFRKNVMGWYRQAPGKEREFVASISSSGSSTYYADSVKGRFTISRDYAKNTVYLQMNSLKPEDTAVYYCAARSVYATKRKYDYWGQGTQVTVSS	high polyreactivity
QVQLVESGGALVQAGGSLRLSCAASGSTFYWNTMGWYRQAPGKERELVASITRGGSTYYADSVKGRFTISRDNAKNTVYLQMNSLKPEDSAVYYCNVLAWSYGYRYYSWGQGTQVTVSS	high polyreactivity
QVQLVESGGGLVQAGGSLRLSCAASGSTFRRNAMGWYRQAPGKERELVASITSGGSTYYADSVKGRFTISRDNAKNTVYLQMNSLKPEDTAVYYCAVVWRGGYRWPYEYWGQGTQVTVSS	low polyreactivity
QVQLVESGGGLVQAGGSLRLSCAASGSIFSYNAMGWSRQAPGNERELVARISYSGGSTYYADSVKGRFTISRDNAKNTVYLQMNSLKPEDTAVYYCAKRAYGWPYDYWGQGTQVTVSS	high polyreactivity
QVQLVESGGGLVQAGGSLRLSCAASGSIFIVNVMGWYRQAPGKERELVAGITTNGGITYYADSVKGRFTISRDNAKNTVYLQMNSLKPEDTAVYYCATRSGSPSSIEMDYWGQGTQVTVSS	low polyreactivity
QVQHVESGGGLVQAGGSLRLSCAASGSIFEDYVMGWYRQAPGKERELVADITSGGTTYYADSVKGRFTISRDNAKNTVYLQMNSLKPEDTAVYYCAAEVDWVPFLLDYWGQGTQVTVSS	low polyreactivity
QVQLVESGGGLVQAGGSLRLSCAASGFIFSQNVMGWYRQAPGKERELVAAISSSGGSTYYADSVKGRFTISRDNAKNTVYLQMNSLKREDTAVYYCAARPYVRFNYWGQGTQVTVSS	high polyreactivity
QVQLVESGGGLVQAGGSLRLSCAASGSIFDVYGMGWYRQAPGKEREFVADITSRGTRTYYADSVKGRFTISRDNAKNTVYLQMNSLKPEDTAVYYCNADRYTAVRAYDYWGQGTQVTVSS	low polyreactivity
QVQLVESGGGLVQAGGSLRLSCAASGSIFEDNVMGWYRQAPGKEREFVADITAIGGSTYYADSVKGRFTISRDNAKNTVYLQMNSLKPEDTAVDYCAAGFYVDYQLYEYWGQGTQVTVSS	high polyreactivity
QVQLVESVGGLVQAGGSLRLSCSASGTFRRNVKGWYRQAPGKERELVAAIRSGGSTYYADSVKGRFTISRDNAKHTVFLQMNSLKPEDTAVYYCASDRPGHSFYDEWYRYDSWGQGTQVTVSS	low polyreactivity
QVHLVESGGGLVQAGGSLRLSCAASGRIFGRYAMGWYRQAPGKERELVARITTSGGSTSYADSVKGRFTISRDNAKNTVYLQMNSLKPEDTAVYYCAADRARYYSEYDYWGQGTQVTVSS	low polyreactivity
QVQLVESGGGLVQAGGSLRLSCAASGSTFVVNAMGWYRQAPGKERELVAAIDDGAGDTYYADSVKGRFTISRDNAENTVYLQMNSLKPEDTAVYYCAADTWYQMDYWGQGTQVTVSS	low polyreactivity
QVQLVESGGGLVQAGGSLRLSCDASGSTIPTYAMGWYRQAPGKERELVASISVTTGSTYYADSVKGRFTISRDNAKNTVYLNMKSLKPEDTAVYFCAKRTYSRKFRGSYNYWGQGTEVTVSS	high polyreactivity
QVQLVESGGGLVQAGGSLRLSCAASGFILAGYAMGWYRQAPGKERELVAAINSRGTRTYYADSVKGRFTISRDNAKNTVYLQMNSLKPEDTAVYYCAVHVWGTYGSWEYYYWGQGTQVTVSS	high polyreactivity
QVQLVESGGGLVQAGGSLRLSCAASGFTLIDYAMGWYRQAPGKERELVAAISGSGGRTYYADSVKGRFTISRDNAKNTVYLQMNSLKPEDTAVYYCAAGRRHVYKRRRYDYCGQGTQVTVSS	high polyreactivity
QVQLVESGGGLVQAGGSLRLSCAASGSIFNWYAMGWSRQAPGKERELVAAISEDGGSTYYADSVKGRFTISRDNAKNTVYLQMNTLKPEDTAVYYCATPVASVTGYDYWGQGTQVTVSS	low polyreactivity
QVQLVESGGGLVQAGGSLRLSCAASGLTFDHYTMGWYRQATGLERELVAAITKNGGSTYYADSVKGRFTISRDNAKNTVYLQMISLKPEDTAVYYCNVGPRRVDRSRAASSDYDYWGQGTQVTVSS	high polyreactivity
QVQHVESGGGLVQARGSLRLSCAASGFIIWGYAMGWYRQAPGKERELVAAISSSGGSTYYADSVKGRFTISRDNAKNTVYLQMNSLKPEDTAVYYCAAVRYQAYSGDGGYWGQGTQVTVSS	low polyreactivity
QVQIVESGGGLVQAGGSLRVSCAASGSTFAVYAMGWYRQAPGKEREMVAAISQSGGSTNYADSVKGRFTISRDNAKNTVYLQMNSLKPEDTAVYYCNVDVSRSWAQPYTYDYWGHGTQVTVSS	low polyreactivity
